# Experimental data as given in the MegaScale stability set (Tsuboyama et al. 2023).
# B1: EEHEE_rd4_0469 (parent)
# chain: ITIHVNGVTYHFDNPEEAEKFAQKMAKTYQLKMEIHNGEFHME
# Variants of: B1
# Assay: folding stability dG (cDNA display proteolysis); higher = more stable
# Details: PBS, room temperature
row,Variant,folding stability dG
1,ITIHVNGVTYHFDNPEEAEKFAQKMAKTMQLKMEIHNGEFHME [Y29M],0.899 kcal/mol
2,ITIHVNGVTYHFDNPEEAEKFAQKMAKTPQLKMEIHNGEFHME [Y29P],1.7 kcal/mol
3,ITIHVNGVTYHFDNPEEAEKFAQKMAKTNQLKMEIHNGEFHME [Y29N],1.29 kcal/mol
4,ITIHVNGVTYHFDNPEEAEKFAQKMAKTFQLKMEIHNGEFHME [Y29F],0.965 kcal/mol
5,ITIHVNGVTYHFDNPEEAEKFAQKMAKTYQMKMEIHNGEFHME [L31M],1.01 kcal/mol
6,ITIHVNGVTYHFDNPEEAEKFAQKMAKTYQKKMEIHNGEFHME [L31K],0.692 kcal/mol
7,ITIHVNGVTYHFDNPEEAEKFAQKMAKTYQWKMEIHNGEFHME [L31W],0.829 kcal/mol
8,ITIHVNGVTYHFDNPEEAEKFAQKMAKTYQPKMEIHNGEFHME [L31P],1.13 kcal/mol
9,ITIHVNGVTYHFDNPEEAEKFAQKMAKTYQNKMEIHNGEFHME [L31N],1 kcal/mol
10,ITIHVNGVTYHFDNPEEAEKFAQKMAKTYQCKMEIHNGEFHME [L31C],2.3 kcal/mol
11,ITIHVNGVTYHFDNPEEAEKFAQKMAKTYQQKMEIHNGEFHME [L31Q],0.833 kcal/mol
12,ITIHVNGVTYHFDNPEEAEKFAQKMAKTYQFKMEIHNGEFHME [L31F],1.1 kcal/mol
13,ITIHVNGVTYHFDNPEEAEKFAQKMAKTYQIKMEIHNGEFHME [L31I],1.15 kcal/mol
14,ITIHVNGVTYHFDNPEEAEKFAQKMAKTYQHKMEIHNGEFHME [L31H],0.984 kcal/mol
15,ITIHVNGVTYHFDNPEEAEKFAQKMAKTYQDKMEIHNGEFHME [L31D],1.3 kcal/mol
16,ITIHVNGVTYHFDNPEEAEKFAQKMAKTYQGKMEIHNGEFHME [L31G],1.02 kcal/mol
17,ITIHVNGVTYHFDNPEEAEKFAQKMAKTYQYKMEIHNGEFHME [L31Y],1.14 kcal/mol
18,ITIHVNGVTYHFDNPEEAEKFAQKMAKTYQRKMEIHNGEFHME [L31R],0.214 kcal/mol
19,ITIHVNGVTYHFDNPEEAEKFAQKMAKTYQSKMEIHNGEFHME [L31S],0.767 kcal/mol
20,ITIHVNGVTYHFDNPEEAEKFAQKMAKTYQAKMEIHNGEFHME [L31A],0.799 kcal/mol

row,Variant,folding stability dG
1,ITIHVNGVTYHFDNPEEAEKFAQKMAKTYQVKMEIHNGEFHME [L31V],1.28 kcal/mol
2,ITIHVNGVTYHFDNPEEAEKFAQKMAKTYQTKMEIHNGEFHME [L31T],0.775 kcal/mol
3,ITIHVNGVTYHFDNPEEAEKFAQKMAKTYQEKMEIHNGEFHME [L31E],1.29 kcal/mol
4,ITIHVNGVTYHFDNPEEAEKFAQKMMKTYQLKMEIHNGEFHME [A26M],1.46 kcal/mol
5,ITIHVNGVTYHFDNPEEAEKFAQKMYKTYQLKMEIHNGEFHME [A26Y],1.45 kcal/mol
6,ITIHVNGVTYHFDNPEEAEKFAQKMVKTYQLKMEIHNGEFHME [A26V],0.794 kcal/mol
7,ITIHVNGVTYHFDNPEEAEKFAQKMNKTYQLKMEIHNGEFHME [A26N],0.766 kcal/mol
8,ITIHVNGVTYHFDNPEEAEKFAQKMRKTYQLKMEIHNGEFHME [A26R],1.1 kcal/mol
9,ITIHVNGVTYHFDNPEEAEKFAQKMEKTYQLKMEIHNGEFHME [A26E],1.12 kcal/mol
10,ITIHVNGVTYHFDNPEEAEKFAQKMPKTYQLKMEIHNGEFHME [A26P],0.076 kcal/mol
11,ITIHVNGVTYHFDNPEEAEKFAQKMTKTYQLKMEIHNGEFHME [A26T],0.708 kcal/mol
12,ITIHVNGVTYHFDNPEEAEKFAQKMHKTYQLKMEIHNGEFHME [A26H],0.851 kcal/mol
13,ITIHVNGVTYHFDNPEEAEKFAQKMQKTYQLKMEIHNGEFHME [A26Q],0.97 kcal/mol
14,ITIHVNGVTYHFDNPEEAEKFAQKMIKTYQLKMEIHNGEFHME [A26I],1.31 kcal/mol
15,ITIHVNGVTYHFDNPEEAEKFAQKMWKTYQLKMEIHNGEFHME [A26W],1.63 kcal/mol
16,ITIHVNGVTYHFDNPEEAEKFAQKMSKTYQLKMEIHNGEFHME [A26S],1.04 kcal/mol
17,ITIHVNGVTYHFDNPEEAEKFAQKMDKTYQLKMEIHNGEFHME [A26D],0.963 kcal/mol
18,ITIHVNGVTYHFDNPEEAEKFAQKMKKTYQLKMEIHNGEFHME [A26K],1.01 kcal/mol
19,ITIHVNGVTYHFDNPEEAEKFAQKMFKTYQLKMEIHNGEFHME [A26F],1.19 kcal/mol
20,ITIHVNGVTYHFDNPEEAEKFAQKMGKTYQLKMEIHNGEFHME [A26G],0.919 kcal/mol

row,Variant,folding stability dG
1,ITIHVNGVTYHFDNPEEAEKFAQKMLKTYQLKMEIHNGEFHME [A26L],1.25 kcal/mol
2,ITIHVNGVTYHFDNPEEAEKFAQKMAFTYQLKMEIHNGEFHME [K27F],1.25 kcal/mol
3,ITIHVNGVTYHFDNPEEAEKFAQKMAYTYQLKMEIHNGEFHME [K27Y],1.27 kcal/mol
4,ITIHVNGVTYHFDNPEEAEKFAQKMAPTYQLKMEIHNGEFHME [K27P],1.22 kcal/mol
5,ITIHVNGVTYHFDNPEEAEKFAQKMAMTYQLKMEIHNGEFHME [K27M],1.22 kcal/mol
6,ITIHVNGVTYHFDNPEEAEKFAQKMAQTYQLKMEIHNGEFHME [K27Q],1.24 kcal/mol
7,ITIHVNGVTYHFDNPEEAEKFAQKMANTYQLKMEIHNGEFHME [K27N],0.922 kcal/mol
8,ITIHVNGVTYHFDNPEEAEKFAQKMALTYQLKMEIHNGEFHME [K27L],1.34 kcal/mol
9,ITIHVNGVTYHFDNPEEAEKFAQKMAATYQLKMEIHNGEFHME [K27A],1.32 kcal/mol
10,ITIHVNGVTYHFDNPEEAEKFAQKMADTYQLKMEIHNGEFHME [K27D],1.5 kcal/mol
11,ITIHVNGVTYHFDNPEEAEKFAQKMATTYQLKMEIHNGEFHME [K27T],1.02 kcal/mol
12,ITIHVNGVTYHFDNPEEAEKFAQKMASTYQLKMEIHNGEFHME [K27S],1 kcal/mol
13,ITIHVNGVTYHFDNPEEAEKFAQKMAGTYQLKMEIHNGEFHME [K27G],0.713 kcal/mol
14,ITIHVNGVTYHFDNPEEAEKFAQKMAETYQLKMEIHNGEFHME [K27E],1.51 kcal/mol
15,ITIHVNGVTYHFDNPEEAEKFAQKMARTYQLKMEIHNGEFHME [K27R],1.09 kcal/mol
16,ITIHVNGVTYHFDNPEEAEKFAQKMAVTYQLKMEIHNGEFHME [K27V],1.22 kcal/mol
17,ITIHVNGVTYHFDNPEEAEKFAQKMAITYQLKMEIHNGEFHME [K27I],1.34 kcal/mol
18,ITIHVNGVTYHFDNPEEAEKFAQKMAWTYQLKMEIHNGEFHME [K27W],1.38 kcal/mol
19,ITIHVNGVTYHFDNPEEAEKFAQKMAHTYQLKMEIHNGEFHME [K27H],0.969 kcal/mol
